Consider nine molecules from US20230220007A1, “SETD7 EPIGENETIC MODULATORS” (Biorchestra Co., Ltd., priority 2020, published 2023).

B1: Y305A: SETD7 mutant, Tyr305 mutated to alanine (phospho-disrupting mutation) (protein)
chain: MDSDDEMVEEAVEGHLDDDGLPHGFCTVTYSSTDRFEGNFVHGEKNGRGKFFFFDGSTLEGYYVDDALQGQGVYTYEDGGVLQGTYVDGELNGPAQEYDTDGRLIFKGQYKDNIRHGVCWIYYPDGGSLVGEVNEDGEMTGEKIAYVYPDERTALYGKFIDGEMIEGKLATLMSTEEGRPHFELMPGNSVYHFDKSTSSCISTNALLPDPYESERVYVAESLISSAGEGLFSKVAVGPNTVMSFYNGVRITHQEVDSRDWALNGNTLSLDEETVIDVPEPYNHVSKYCASLGHKANHSFTPNCIADMFVHPRFGPIKCIRTLRAVEADEELTVAYGYDHSPPGKSGPEAPEWYQVELKAFQATQQK
B2: SETD7 S340A: SETD7 mutant, Ser340 mutated to alanine; cannot be phosphorylated (protein)
chain: B1 chain with A305Y, S340A
B3: SETD7 T332A: SETD7 mutant, Thr332 mutated to alanine; cannot be phosphorylated (protein)
chain: B1 chain with A305Y, T332A
B4: S345: SETD7 mutant, Ser345 mutated to alanine (phospho-disrupting mutation) (protein, UniProt Q8WTS6 1-366, looked up, variant S345A)
Histone-lysine …: B1 chain with A305Y, S345A
B5: K317A: SETD7 substitution mutant at position 317 (protein)
chain: B1 chain with A305Y, K317A
B6: SETD7 S340D: SETD7-GFP mutant with phospho-mimicking substitution S340D (protein, UniProt Q8WTS6 1-366, looked up, variant S340D)
Histone-lysine …: B1 chain with A305Y, S340D
modifications: GFP tag
B7: SETD7 T332E/S340D/S345D: SETD7-GFP mutant with three phospho-mimicking substitutions (protein, UniProt Q8WTS6 1-366, looked up, variant T332E S340D S345D)
Histone-lysine …: B1 chain with A305Y, T332E, S340D, S345D
modifications: GFP tag
notes: SETD7-GFP mutant with three phospho-mimicking substitutions
B8: SETD7 T332E: SETD7-GFP mutant with phospho-mimicking substitution T332E (protein, UniProt Q8WTS6 1-366, looked up, variant T332E)
Histone-lysine …: B1 chain with A305Y, T332E
modifications: GFP tag
B9: SETD7 H297A/T332E/S340D/S345D: catalytically inert phospho-mimicking SETD7 mutant due to the H297A mutation (protein)
chain: B1 chain with H297A, A305Y, T332E, S340D, S345D

Positions count from the first letter of the chain named. Names and notes keep the numbering of the source.

One series concerns human retinal pigment epithelial cells (RPE). Description: Nuclear translocation of SETD7 alanine (phospho-disrupting) mutants in response to high glucose levels. The format is cell-based. The following applies: mutants expressed in human RPE cells; FIG. 3. The source says: To identify the potential role of phosphorylatable sites located in the C-terminal regions of SETD7 (FIG. 1), phosphorylatable serines, threonines and tyrosines at positions 225, 305, 332, 340, and 345 where mutated to alanine (phospho-disrupting mutations) and expressed in human retinal pigment epithelial cells (RPE). Nuclear translocation or lack thereof in response to high glucose levels was examined (FIG. 2).
SETD7 cellular distribution changed in response to changes in glucose levels for wild type SETD7 (WT) and SETD7 mutants comprising a S225A substitution or a Y305A substitutions.
As for B1, the “nuclear translocation in response to changes in glucose” value is recorded as “translocated normally to the nucleus”.
As to B2, the “nuclear translocation in response to changes in glucose” value is reported as “did not translocate to the nucleus”.
Take B3: the “nuclear translocation in response to changes in glucose” value is given as “did not translocate to the nucleus”.
Consider B4, for which the “nuclear translocation in response to changes in glucose” value is listed as “did not translocate to the nucleus”.

Another series concerns H3 and p53/TP53.
Assay: not given
The conditions noted are these: cited from earlier work.
For B5, the “methyltransferase activity for H3 and p53/TP53” value is “increased”.

The subject of another series is human retinal pigment epithelial (RPE) cells. Description: Cellular distribution of SETD7-GFP mutants under low or high glucose (GFP fluorescence). The format is cell-based. The following applies: SETD7-GFP mutants in human RPE cells; low glucose and high glucose conditions; FIG. 4. The method, then: SETD7-GFP mutants with phospho-mimicking substitutions at positions 332, 340 and/or 345 were prepared. The phospho-mimicking substitutions were T332E, S340D, and/or S345D. The SETD7-GFP mutants were expressed in human retinal pigment epithelial (RPE) cells. The fluorescence intensity emitted from the GFP signal in the cells under high or low glucose condition was measured.
Take B6: the “translocation to the nucleus” value is on record as “translocated to the nucleus”.
B2: the “translocation to the nucleus” value is given as “not translocated to the nucleus”.
For the molecule B7, the “translocation to the nucleus” value was “translocated to the nucleus”.
In the case of B8, the “translocation to the nucleus” value is “translocated to the nucleus”.
Regarding B9, the “translocation to the nucleus” value is “translocated to the nucleus”.
In the case of B3, the “translocation to the nucleus” value is recorded as “not translocated to the nucleus”.

A further series relates to TAF10.
Assay: not given
The following applies: cited from earlier work.
In the case of B5, the “methyltransferase activity toward TAF10” value is listed as “reduction”.
